In US11306156 one finds Change in KD with respect to wild type (-(log(KD design) - log(KD wt))), Kd and change in KD vs wild type, -(log(KD design)-log(KD wt)) data, which are given here for 51 substances.

One may read the Kd as the free concentration of one partner at which half of the binding sites on the other are occupied at equilibrium, for simple one-to-one binding. High values mean lower affinity, low ones higher affinity.

In test [1] the target is tissue factor (TF) antigen (UniProt P13726). The test can be described thus: SPR (ProteOn), Fab captured on anti-penta-His, TF as analyte, 1:1 fit.
In test [2] the target is tissue factor (TF) (human) (UniProt P13726). In words: SPR (ProteOn), Fab captured on anti-penta His, TF analyte, 1:1 fit.
tissue factor (TF) (human), sequence (P13726 33-251 limits assumed): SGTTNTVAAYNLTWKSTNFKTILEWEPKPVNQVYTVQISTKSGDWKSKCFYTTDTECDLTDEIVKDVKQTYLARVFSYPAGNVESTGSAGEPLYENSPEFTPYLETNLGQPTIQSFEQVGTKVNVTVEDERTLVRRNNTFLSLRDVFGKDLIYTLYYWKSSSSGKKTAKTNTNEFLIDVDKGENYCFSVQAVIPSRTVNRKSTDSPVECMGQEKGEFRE

tissue factor (TF) antigen, sequence (P13726 33-251 limits assumed): as above

For “D3H44 Fab heterodimer, H L124A_Q179K / L Q124E_V133W_T180E”, in test [1], the Change in KD with respect to wild type (-(log(KD design) - log(KD wt))) came out at 0.1 and the dissociation constant (Kd) came to 0.12 nM. Taken in the same sequence, the figures for “D3H44 Fab heterodimer, H L124A_S186K / L Q124E_V133W_T180E” were 0.02 and 0.15 nM. In test [1], “D3H44 Fab heterodimer, H L143A_Q179K / L Q124E_V133Y_T180E” registered a Change in KD with respect to wild type (-(log(KD design) - log(KD wt))) of -0.23 and an equilibrium dissociation constant (Kd) of 0.27 nM.

Turning to “D3H44 Fab heterodimer, H L143E_K145T / L Q124R”, in test [1], the Change in KD with respect to wild type (-(log(KD design) - log(KD wt))) is -0.25 and the Kd is 0.28 nM. In test [1], “D3H44 Fab heterodimer, H L143E_K145T / L Q124R_T178R” gave a Change in KD with respect to wild type (-(log(KD design) - log(KD wt))) of 0.15 and an equilibrium dissociation constant (Kd) of 0.11 nM. For “D3H44 Fab heterodimer, H L143E_K145T_Q179E_S188L / L Q124R_T178R”, in that order: -0.34 and 0.34 nM.

In test [1], “D3H44 Fab heterodimer, H L143E_K145T_S188L / L Q124R_Q160K_T178R” gave a Change in KD with respect to wild type (-(log(KD design) - log(KD wt))) of -0.19 and a Kd of 0.24 nM. For “D3H44 Fab heterodimer, H L143K / L Q124E_V133D_S176L”, in test [1], the Change in KD with respect to wild type (-(log(KD design) - log(KD wt))) was -0.25 and the Kd stood at 0.28 nM. Take “D3H44 Fab heterodimer, H L143K_D146G / L Q124E_V133D”: in test [1], the Change in KD with respect to wild type (-(log(KD design) - log(KD wt))) was -0.22 and the equilibrium dissociation constant (Kd) worked out at 0.25 nM.

In test [1], “D3H44 Fab heterodimer, H L143R / L Q124E_V133E” yielded a Change in KD with respect to wild type (-(log(KD design) - log(KD wt))) of -0.09 and a Kd of 0.2 nM. For “D3H44 Fab heterodimer, H L143R / L Q124E_V133E_Q160M”, in that order: -0.21 and 0.25 nM. For “D3H44 Fab heterodimer, H L143R / L Q124E_V133E_S176L”, in that order: -0.25 and 0.28 nM. “D3H44 Fab heterodimer, H Q179K / L Q124E_Q160E_T178E”: in test [1], the Change in KD with respect to wild type (-(log(KD design) - log(KD wt))) was -0.27 and the dissociation constant (Kd) was 0.29 nM. In test [1], “D3H44 Fab heterodimer, H Q179K / L Q124E_S131T_T178F_T180E” displayed a Change in KD with respect to wild type (-(log(KD design) - log(KD wt))) of 0.13 and a Kd of 0.12 nM. In test [1], “D3H44 Fab heterodimer, H Q179K / L Q124E_S131T_T178Y_T180E” had a Change in KD with respect to wild type (-(log(KD design) - log(KD wt))) of -0.01 and a Kd of 0.16 nM.

In test [1], “D3H44 Fab heterodimer, H Q179K / L Q124E_S176L_T180E” had a Change in KD with respect to wild type (-(log(KD design) - log(KD wt))) of 0.28 and a dissociation constant Kd of 0.08 nM. In test [1], “D3H44 Fab heterodimer, H Q179K / L Q124E_T178E_T180E” gave a Change in KD with respect to wild type (-(log(KD design) - log(KD wt))) of 0.1 and a dissociation constant (Kd) of 0.13 nM.

With “D3H44 Fab heterodimer, H Q179K / L S131E”, in test [1], the Change in KD with respect to wild type (-(log(KD design) - log(KD wt))) was 0.05 and the dissociation constant Kd came out at 0.14 nM. On to “D3H44 Fab heterodimer, H Q179R / L Q124E_Q160E_T178E”, for which, in test [1], the Change in KD with respect to wild type (-(log(KD design) - log(KD wt))) worked out at 0.16 and the Kd amounted to 0.11 nM. In test [1], “D3H44 Fab heterodimer, H Q179R / L Q124E_S131T_T178F_T180E” came in with a Change in KD with respect to wild type (-(log(KD design) - log(KD wt))) of 0.14 and a Kd of 0.11 nM. On to “D3H44 Fab heterodimer, H Q179R / L Q124E_S131T_T178Y_T180E”, for which, in test [1], the Change in KD with respect to wild type (-(log(KD design) - log(KD wt))) turned out to be 0.07 and the dissociation constant (Kd) came to 0.13 nM. For “D3H44 Fab heterodimer, H Q179R / L Q124E_S176L_T180E”, in that order: -0.02 and 0.17 nM. Taken in the same sequence, the figures for “D3H44 Fab heterodimer, H Q179R / L Q124E_T178E” were 0.04 and 0.14 nM. As for “D3H44 Fab heterodimer, H Q179R / L Q124E_T178E_T180E”, in test [1], the Change in KD with respect to wild type (-(log(KD design) - log(KD wt))) is -0.01 and the Kd amounted to 0.16 nM.

In the case of “D3H44 Fab heterodimer, H S186K / L Q124E_S131T_T178F_T180E”, in test [1], the Change in KD with respect to wild type (-(log(KD design) - log(KD wt))) is -0.03 and the equilibrium dissociation constant (Kd) was 0.17 nM.

Take “D3H44 Fab heterodimer, H S186K / L Q124E_S131T_T178Y_T180E”: in test [1], the Change in KD with respect to wild type (-(log(KD design) - log(KD wt))) was 0.09 and the Kd was determined as 0.13 nM. On to “D3H44 Fab heterodimer, H S186K / L Q124E_S176L_T180E”, for which, in test [1], the Change in KD with respect to wild type (-(log(KD design) - log(KD wt))) was 0.03 and the Kd amounted to 0.15 nM. In test [1], “D3H44 Fab heterodimer, H S186K / L Q124E_T178E” had a Change in KD with respect to wild type (-(log(KD design) - log(KD wt))) of 0.01 and a Kd of 0.15 nM.

Turning to “D3H44 Fab heterodimer, H S186K / L Q124E_T178E_T180E”, in test [1], the Change in KD with respect to wild type (-(log(KD design) - log(KD wt))) is 0.02 and the equilibrium dissociation constant (Kd) came out at 0.15 nM. In test [1], “D3H44 Fab heterodimer, H S186K / L S131E” showed a Change in KD with respect to wild type (-(log(KD design) - log(KD wt))) of 0.05 and a dissociation constant (Kd) of 0.14 nM. For “D3H44 Fab heterodimer, H S186R / L Q124E_T178E_T180E”, in that order: 0.49 and 0.05 nM.

In test [2], “H1L1 Fab heterodimer of LCCA set 6037 (D3H44 Fab; H: L124A; L: V133W)” came in with a Kd of 0.13 nM and a change in KD vs wild type, -(log(KD design)-log(KD wt)) of 0.07.

On to “H1L1 Fab heterodimer of LCCA set 9041 (D3H44 Fab; H: A139C_C233S; L: F116C_C214S)”, for which the Kd in test [2] was 0.14 nM. Still for that read-out and setting: in the case of “H1L1 Fab heterodimer of LCCA set 9043 (D3H44 Fab; H: F122C_C233S; L: S121C_C214S)” it was 0.16 nM; in that of “H1L1 Fab heterodimer of LCCA set 9044 (D3H44 Fab; H: P175C_C233S; L: S162C_C214S)”, 0.18 nM.

As for “H1L1 Fab heterodimer of LCCA set 9052 (D3H44 Fab; H: A139G_F174V_V190A; L: S131T_L135F_S176F_T178F)”, in test [2], the Kd turned out to be 0.14 nM and the change in KD vs wild type, -(log(KD design)-log(KD wt)) is 0.06. In test [2], “H1L1 Fab heterodimer of LCCA set 9068 (D3H44 Fab; H: F174G; L: S131T_S176F_T178F)” registered a dissociation constant (Kd) of 0.13 nM and a change in KD vs wild type, -(log(KD design)-log(KD wt)) of 0.07. In test [2], “H1L1 Fab heterodimer of LCCA set 9070 (D3H44 Fab; H: F174G; L: S131T_S176F_T178Y)” had an equilibrium dissociation constant (Kd) of 0.16 nM and a change in KD vs wild type, -(log(KD design)-log(KD wt)) of 0. For “H1L1 Fab heterodimer of LCCA set 9071 (D3H44 Fab; H: F174V; L: S131T_S176F_T178F)”, in that order: 0.21 nM and -0.12. As for “H1L1 Fab heterodimer of LCCA set 9073 (D3H44 Fab; H: F174V; L: S131T_S176F_T178Y)”, in test [2], the Kd was found to be 0.14 nM and the change in KD vs wild type, -(log(KD design)-log(KD wt)) worked out at 0.04. As for “H1L1 Fab heterodimer of LCCA set 9100 (D3H44 Fab; H: L124A_Q179K; L: Q124E_V133W_T180E)”, in test [2], the Kd came to 0.12 nM and the change in KD vs wild type, -(log(KD design)-log(KD wt)) was 0.1. In test [2], “H1L1 Fab heterodimer of LCCA set 9102 (D3H44 Fab; H: L124A_S186K; L: Q124E_V133W_T180E)” yielded an equilibrium dissociation constant (Kd) of 0.15 nM and a change in KD vs wild type, -(log(KD design)-log(KD wt)) of 0.02. In test [2], “H1L1 Fab heterodimer of LCCA set 9175 (D3H44 Fab; H: L124E_L143D_K145M; L: Q124K_V133G_S176R)” showed an equilibrium dissociation constant (Kd) of 0.25 nM and a change in KD vs wild type, -(log(KD design)-log(KD wt)) of -0.21. For “H1L1 Fab heterodimer of LCCA set 9205 (D3H44 Fab; H: L124E_L143D_K145M; L: V133G_S176R_T178K)”, in test [2], the Kd stood at 0.28 nM and the change in KD vs wild type, -(log(KD design)-log(KD wt)) is -0.25.

In test [2], “H1L1 Fab heterodimer of LCCA set 9213 (D3H44 Fab; H: L124E_L143D_K145T; L: Q124K_V133G_S176R)” yielded an equilibrium dissociation constant (Kd) of 0.2 nM and a change in KD vs wild type, -(log(KD design)-log(KD wt)) of -0.11.

In test [2], “H1L1 Fab heterodimer of LCCA set 9259 (D3H44 Fab; H: L124E_L143E_K145M; L: Q124K_V133G_S176R_T178K)” returned a dissociation constant Kd of 0.24 nM and a change in KD vs wild type, -(log(KD design)-log(KD wt)) of -0.19. In test [2], “H1L1 Fab heterodimer of LCCA set 9351 (D3H44 Fab; H: L124R_D146N_Q179K; L: Q124E_V133G_S176D_T178E_T180E)” came in with a Kd of 0.2 nM and a change in KD vs wild type, -(log(KD design)-log(KD wt)) of -0.1. In test [2], “H1L1 Fab heterodimer of LCCA set 9364 (D3H44 Fab; H: L124R_D146N_Q179K; L: V133G_S176D_T180E)” had a Kd of 0.15 nM and a change in KD vs wild type, -(log(KD design)-log(KD wt)) of 0.01. As to “H1L1 Fab heterodimer of LCCA set 9447 (D3H44 Fab; H: L124R_Q179K; L: V133G_S176D_T180E)”, in test [2], the dissociation constant (Kd) was 0.28 nM and the change in KD vs wild type, -(log(KD design)-log(KD wt)) is -0.26. In test [2], “H1L1 Fab heterodimer of LCCA set 9491 (D3H44 Fab; H: L124R_S186K; L: V133G_S176D_T180E)” registered a dissociation constant Kd of 0.24 nM and a change in KD vs wild type, -(log(KD design)-log(KD wt)) of -0.19. In test [2], “H1L1 Fab heterodimer of LCCA set 9566 (D3H44 Fab; H: L124W_L143F; L: V133A)” gave a Kd of 0.25 nM and a change in KD vs wild type, -(log(KD design)-log(KD wt)) of -0.21.
